T1: biotinylated TGPAvi (Galaxea fascicularis (coral), biotin on the Avi-tag (BirA))
T1 chain 1: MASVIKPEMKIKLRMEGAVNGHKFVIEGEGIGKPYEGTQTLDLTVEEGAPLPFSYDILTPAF
T1 chain 2: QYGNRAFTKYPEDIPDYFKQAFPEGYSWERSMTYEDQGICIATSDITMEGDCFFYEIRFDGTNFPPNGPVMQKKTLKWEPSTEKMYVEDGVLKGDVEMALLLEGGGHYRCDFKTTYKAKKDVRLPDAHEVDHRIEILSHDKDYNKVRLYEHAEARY

B1: sybody 66 (VHH)
VHH: QVQLVESGGGLVQAGGSLRLSCAASGFPVMENSMYWYRQAPGKEREWVAAITSQGSWTWYADSVKGRFTISRDNAKNTVYLQMNSLKPEDTAVYYCHVSVGTNYTGQGTQVTVS
B2: sybody 92 (VHH)
VHH: QVQLVESGGGLVQAGGSLRLSCAASGFPVDTQWMHWYRQAPGKEREWVAAISSTGRSTFYADSVKGRFTISRDNAKNTVYLQMNSLKPEDTAVYYCTVYVGNRYRGQGTQVTVS
B3: sybody 44 (VHH)
VHH: QVQLVESGGGLVQAGGSLRLSCAASGFPVGRASMWWYRQAPGKEREWVAAISSYGWVTAYADSVKGRFTISRDNAKNTVYLQMNSLKPEDTAVYYCEVSVGTGYRGQGTQVTVS
B4: sybody 68 (VHH)
VHH: QVQLVESGGGLVQAGGSLRLSCAASGFPVNAVTMWWYRQAPGKEREWVAAIKSQGAGTWYADSVKGRFTISRDNAKNTVYLQMNSLKPEDTAVYYCHVYVGAYRYEGRGTQVTVS

Legend:
biotinylated TGPAvi [1] = target: T1, biotinylated TGPAvi; experiment: BLI
biotinylated TGPAvi [2] = target: T1, biotinylated TGPAvi; experiment: BLI

Row | Binder | Kd (biotinylated TGPAvi [1]) [nM] | koff (biotinylated TGPAvi [2]) [s⁻¹]
1 | B1 | 7.8 | 0.0013
2 | B2 | 3.3 | 0.00066
3 | B3 | 4.4 | 0.00085
4 | B4 | 10.4 | 0.0012
